The values below come from PMC10328853, “Design and preclinical evaluation of a novel apelin-based PET radiotracer targeting APJ receptor for molecular imaging of angiogenesis” (Angiogenesis, 2023).

One data set concerns the target T1, APJ on T84 cells (Homo sapiens, UniProt P35414).
T1 construct: endogenous in cells; host or cells: T84 human colon adenocarcinoma cells
T1 sequence (P35414 1-380): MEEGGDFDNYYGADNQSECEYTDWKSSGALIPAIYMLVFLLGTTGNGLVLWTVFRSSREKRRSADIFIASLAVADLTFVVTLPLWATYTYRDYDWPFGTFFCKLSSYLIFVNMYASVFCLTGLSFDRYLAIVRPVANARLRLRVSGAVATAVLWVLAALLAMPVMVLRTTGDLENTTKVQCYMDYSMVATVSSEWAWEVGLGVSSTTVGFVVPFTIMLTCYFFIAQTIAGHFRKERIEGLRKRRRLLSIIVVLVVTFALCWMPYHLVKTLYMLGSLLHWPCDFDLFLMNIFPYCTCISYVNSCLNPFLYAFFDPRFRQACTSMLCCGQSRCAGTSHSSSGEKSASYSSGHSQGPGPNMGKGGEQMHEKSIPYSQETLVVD
Nature of the data set: In vitro specificity of [68Ga]Ga-AP747 by autoradiography, with and without excess apelin-F13A. Format: cell-based. The following applies: 1 h incubation, n = 6. Here is the method:
T84 cells were seeded at a 1.10^6 cells per well density in 24-well plates (Corning, Corning, USA) and incubated overnight with a complete medium. […] After a 1 h incubation, the medium was removed and the cells were washed 3 times with PBS (Eurobio-scientific, Les Ulis, France) and their viability assessed.

The target in a further data set is T2, APJ in T84 tumors (Homo sapiens, UniProt P35414).
T2 construct: Mice bearing ectopic colon adenocarcinoma xenograft; from tissue; host or cells: T84 xenograft tumour in Swiss nude mice
T2 sequence (P35414 1-380): T1 sequence (P35414 1-380)
Nature of the data set: In vivo specificity of PET signal, T84 colon adenocarcinoma xenograft mice, baseline or APJ-blocking. Also on record: species or system mouse. The following applies: PET 1 h p.i., n = 3. The protocol:
Human colon adenocarcinoma xenografts were established by subcutaneous dorsal injections of 1.10^6 T84 cells (100 µL, PBS) to 6-week-old male Swiss nude mice (Charles River, Saint-Germain-Nuelles, France, n = 3) under 2% isoflurane anesthesia.
(§1) Small animal PET imaging acquisition lasted 20 min (number of iterations: 4, coincidence: 1–3) using a field of view (FOV) of 10 cm. CT parameters were fixed at 35 kV voltage, 300 ms exposure at medium zoom, acquired by semi-circular method on the same FOV as PET. CT attenuation-corrected reconstruction was performed using Nucline software (Mediso, Budapest, Hungary). […] Tissue uptake values were expressed as a mean target-to-background PET signal ratio (TBRmean) with background represented by the left gastrocnemius muscle.

A further data set has as its target T3, APJ in Matrigel plug (Mus musculus, UniProt Q9WV08).
T3 construct: probably related to avascular and acellular contents of Matrigel; from tissue; host or cells: Subcutaneous Matrigel plug in male Swiss mice
T3 sequence (Q9WV08 1-377): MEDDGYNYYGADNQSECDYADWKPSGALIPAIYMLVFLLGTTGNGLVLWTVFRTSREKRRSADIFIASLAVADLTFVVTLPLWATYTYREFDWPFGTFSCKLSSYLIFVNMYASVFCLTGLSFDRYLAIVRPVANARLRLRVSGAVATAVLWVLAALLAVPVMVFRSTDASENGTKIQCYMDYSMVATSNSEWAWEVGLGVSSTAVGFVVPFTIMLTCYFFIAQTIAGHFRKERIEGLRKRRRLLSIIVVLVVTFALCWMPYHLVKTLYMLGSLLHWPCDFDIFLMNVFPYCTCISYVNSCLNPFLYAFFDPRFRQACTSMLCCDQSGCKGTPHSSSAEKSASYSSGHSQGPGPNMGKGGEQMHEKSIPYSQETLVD
As to the kind of experiment: In vivo specificity of PET signal, Matrigel plug mice, baseline or APJ-blocking. The following applies: PET 1 h p.i., n = 5. Here is the method:
Matrigel plugs were established by subcutaneous dorsal injections of 300 µL Matrigel (Dutscher, Bernolsheim, France) supplemented with 10% fetal bovine serum, to 9-week-old male Swiss mice (Janvier Labs, Le Genest-Saint-Isle, France, n = 12) under 2% isoflurane anesthesia. Seven Matrigel mice underwent small animal PET follow-up, and five others were involved in the in vivo specificity study as described below.
as §1

Data set [1] can be described thus: in vivo. The note with it: male, Swiss, mouse, iv, 4.45 MBq, total radioactivity. Here is the method: The quantified PET signal in organs was presented as mean ± SD percentage of the decay-corrected injected dose (%ID). Acquisition of small animal dynamic PET/CT was performed for 120 min on a NanoScan PET/CT camera (Mediso, Budapest, Hungary) under 2% isoflurane in medical air anesthesia [PET parameters: numbers of iterations: 4, coincidence: 1–3, field of view (FOV): 10 cm]. CT parameters were fixed at 35 kV voltage, 300 ms exposure at medium zoom, acquired by semi-circular method on the same FOV as PET. CT attenuation-corrected reconstruction was performed using Nucline software (Mediso, Budapest, Hungary) on the following time frames: 0–5 min, 6–10 min, 11–15 min, 16–20 min, 21–25 min, 26–30 min, 31–45 min, 46–60 min, 61–75 min, 76–90 min, 91–105 min, and 106–120 min.

For data set [2] the following is noted: mouse, in vivo, iv. Here is the method:
Blood was collected at 2, 5, 10, 15, 20, 30, 45, 60, 75, 90, 105, and 120 min post-injection and gamma counted with decay correction. Plasmatic half-life (t1/2) was estimated by nonlinear regression. At two hours post-injection, mice were euthanatized and the main organs (heart, liver, lungs, muscle, brain, spleen, intestines, bone, pancreas, and kidneys) were collected, washed in PBS, weighted, and gamma counted. Results were decay corrected and expressed as percentage of injected dose corrected by organ weight (%ID/g).

The nature of data set [3]: in vivo. The following applies: Pietrain, pig, 85 MBq, total radioactivity. The protocol: Attenuation-corrected images were reconstructed using ADW software v4.6 (GE Healthcare, Chicago, Illinois, USA), and PET signal quantifications were performed on CT-based manually drawn volumes of interest (VOIs) using VivoQuant software v.3.5 (InVicro, Boston, MA, USA). Results were decay corrected and expressed as mean ± sd percentage of the injected dose (%ID).

In data set [4] the test system is Matrigel plug mouse model. As to the kind of experiment: Longitudinal PET/CT follow-up in the Matrigel plug mouse model. The note with it: Matrigel mice, n = 7. The data set is classed as in vivo. Here is the method:
Matrigel plugs were established by subcutaneous dorsal injections of 300 µL Matrigel (Dutscher, Bernolsheim, France) supplemented with 10% fetal bovine serum, to 9-week-old male Swiss mice (Janvier Labs, Le Genest-Saint-Isle, France, n = 12) under 2% isoflurane anesthesia. Seven Matrigel mice underwent small animal PET follow-up, and five others were involved in the in vivo specificity study as described below. […] Small animal PET imaging acquisition lasted 20 min (numbers of iterations: 4, coincidence: 1–3) using a field of view (FOV) of 10 cm. CT parameters were fixed at 35 kV voltage, 300 ms exposure at medium zoom, acquired by semi-circular method on the same FOV as PET. CT attenuation-corrected reconstruction was performed using Nucline software (Mediso, Budapest, Hungary). Tissue uptake values were expressed as a target-to-background (Matrigel-to-muscle) or as an ischemic-to-contralateral hindlimb PET signal ratio.

The subject of data set [5] is hindlimb ischemia mouse model. Nature of the data set: Longitudinal PET/CT follow-up in the hindlimb ischemia mouse model. Format: in vivo. The following applies: HLI mice, day 7, PET 1 h after i.v. injection, n = 8. The source says:
Unilateral hindlimb ischemia (HLI) was induced on 9-week-old female Swiss mice (Janvier Labs, n = 8) after femoral artery excision under 2% isoflurane anesthesia as previously described. LASER Doppler perfusion imaging (Perimed, Craponne, France) was used to assess revascularization from day 0 to day 21 after surgery. Perfusion measurements were expressed as an ischemic-to-contralateral ratio of hind limb blood flow normalized to the day of surgery. […] Small animal PET imaging acquisition lasted 20 min (numbers of iterations: 4, coincidence: 1–3) using a field of view (FOV) of 10 cm. CT parameters were fixed at 35 kV voltage, 300 ms exposure at medium zoom, acquired by semi-circular method on the same FOV as PET. CT attenuation-corrected reconstruction was performed using Nucline software (Mediso, Budapest, Hungary). Tissue uptake values were expressed as a target-to-background (Matrigel-to-muscle) or as an ischemic-to-contralateral hindlimb PET signal ratio.

Another data set concerns APJ. The note with it: cited from earlier work. An excerpt:
In this context, we identified the apelin/APJ system as a relevant molecular target for angiogenesis imaging because of its implication in blood vessels formation by sprouting. The APJ receptor also known as APLNR and AGTRL1 is a class A G-protein-coupled receptor. Apelin is an endogenous ligand of this receptor. The Apelin/APJ system is described as implicated in different pathologies. High levels of APJ mRNA and protein are found respectively in endothelial cells through vessel formation and on sprouting vessels of hypoxic tissues and tumor-associated endothel ...

Setting [6] is: 100X apelin-F13A (100 µg) i.v. 30 min before tracer.

`CSCC[C@H](NC(=O)[C@@H]1CCCN1C(=O)CNC(=O)[C@H](CCCCNC(=O)CCC(C(=O)O)N1CCN(CC(=O)O)CCN(CC(=O)O)CC1)NC(=O)[C@H](Cc1c[nH]cn1)NC(=O)[C@H](CO)NC(=O)[C@H](CC(C)C)NC(=O)[C@H](CCCNC(=N)N)NC(=O)[C@@H]1CCCN1C(=O)[C@H](CCCNC(=N)N)NC(=O)[C@H](CCC(N)=O)NC(=O)CCC(C(=O)O)N1CCN(CC(=O)O)CCN(CC(=O)O)CC1)C(=O)N1CCC[C@H]1C(=O)N[C@@H](C)C(=O)O` (some centres unmarked) [[^68Ga]Ga-AP747, metal not drawn]: on APJ on T84 cells (1.7 MBq/10 µL per well), the “cell-to-background autoradiography signal ratio, non-blocked” value was determined as 1.40 ± 0.38. Also, the “cell-to-background autoradiography signal ratio, blocking” value on APJ on T84 cells (large excess of apelin-F13A added 10 min before tracer) is given as 0.50 ± 0.23. Also, the “PET tumor-to-muscle ratio, blocking” value on APJ in T84 tumors (setting [6]) was 1.02 ± 0.31. Also, the “PET tumor-to-muscle ratio, non-blocked” value at APJ in T84 tumors (i.v.) is recorded as 7.93 ± 2.17. Further, the “PET Matrigel-to-muscle ratio, blocking” value at APJ in Matrigel plug (setting [6]) is recorded as 2.35 ± 0.62. Moreover, on APJ in Matrigel plug (i.v.), the “PET Matrigel-to-muscle ratio, non-blocked” value came to 7.29 ± 3.14. The tissue uptake dose at 2 h in “in vivo [1]” (PET signal in bladder) stood at 88.3 ± 5 %ID; in “in vivo [1]” (PET signal in brain) it was 0.02 ± 0.001 %ID; in “in vivo [1]” (PET signal in kidneys), 1.04 ± 0.2 %ID; in “in vivo [1]” (PET signal in liver) it was 0.35 ± 0.03 %ID; in “in vivo [1]” (PET signal in lungs), 0.06 ± 0.02 %ID; in “in vivo [3]” (PET signal in bladder), 39.4 ± 8.54 %ID. Besides, the tissue uptake dose at 2 h in the data set “in vivo [3]” (PET signal in brain) is 0.037 ± 0.015 %ID; in “in vivo [3]” (PET signal in heart), 0.58 ± 0.16 %ID; in the data set “in vivo [3]” (PET signal in kidneys) it was 3.98 ± 0.79 %ID; in the data set “in vivo [3]” (PET signal in liver), 1.42 ± 0.34 %ID; in the data set “in vivo [3]” (PET signal in lungs), 1.39 ± 0.46 %ID. Further, the “Plasmatic half-life (t1/2)” value in data set [2] was 13.31 min. In addition, the “target-to-background (Matrigel-to-muscle) PET signal” value was 3.78 ± 2.11 in data set [4] (day 10, PET 1 h after i.v. injection); 4.86 ± 2.49 in [4] (day 13, PET 1 h after i.v. injection); 5.00 ± 3.04 in data set [4] (day 21, PET 1 h after i.v. injection). In data set [5], the “i/c (ischemic-to-contralateral hindlimb) PET signal ratio” value is listed as 5.49 ± 5.97.

As for [Ala13]-Apelin-13 [apelin-F13A], the “affinity for APJ” value in the data set with APJ is reported as “nanomolar affinity”.
